According to patent US20220380484A1 (MONASH UNIVERSITY, published 2022):

Experiments:
plasmin = target: T1, plasmin (human, UniProt P00747 20-580; P00747 581-810); experiment: SPR, multi-cycle; G05 immobilised on the chip, plasmin injected as analyte; 1:1 Langmuir fit
T1 construct: Bought plasmin (Haematologic Technologies) is named in the activity assay; also called Plm; PLM
Excerpt: Dotted lines represent 1:1 Langmuir model fit to experimental data.

[1] = target: unactivatable mutant of plasminogen (recombinant plasminogen labelled with Alexa-Fluor 647) (human) (UniProt P00747); experiment: flow cytometry: 22.2 nM Alexa-Fluor 647 plasminogen on Group A Streptococcus cells with 2.22 µM G05
plasminogen (human) [2] = target: plasminogen (human) (UniProt P00747); experiment: SPR, multi-cycle; G05 immobilised on the chip, plasminogen injected as analyte; 1:1 Langmuir fit
plasminogen (human) [3] = target: plasminogen (human) (UniProt P00747); experiment: SPR (Biacore T200), antibody immobilised; FIG. 1
plasminogen (human) [4] = target: plasminogen (human) (UniProt P00747); experiment: cell-based or functional assay
[5] = target: unactivatable mutant of plasminogen (recombinant plasminogen labelled with Alexa-Fluor 647) (human) (UniProt P00747); experiment: SDS-PAGE fluorescence scan of the bound fraction: 0.2 µM labelled plasminogen on Group A Streptococcus cells with 7.5 µM G05
plasminogen (human) [6] = target: plasminogen (human) (UniProt P00747); experiment: SPR, multi-cycle; G11 immobilised on the chip, plasminogen injected as analyte; 1:1 Langmuir fit
plasminogen (human) [7] = target: plasminogen (human) (UniProt P00747); experiment: SPR (Biacore T200), antibody immobilised; FIG. 2

T1 sequence (P00747 20-580, chain 1 of 2): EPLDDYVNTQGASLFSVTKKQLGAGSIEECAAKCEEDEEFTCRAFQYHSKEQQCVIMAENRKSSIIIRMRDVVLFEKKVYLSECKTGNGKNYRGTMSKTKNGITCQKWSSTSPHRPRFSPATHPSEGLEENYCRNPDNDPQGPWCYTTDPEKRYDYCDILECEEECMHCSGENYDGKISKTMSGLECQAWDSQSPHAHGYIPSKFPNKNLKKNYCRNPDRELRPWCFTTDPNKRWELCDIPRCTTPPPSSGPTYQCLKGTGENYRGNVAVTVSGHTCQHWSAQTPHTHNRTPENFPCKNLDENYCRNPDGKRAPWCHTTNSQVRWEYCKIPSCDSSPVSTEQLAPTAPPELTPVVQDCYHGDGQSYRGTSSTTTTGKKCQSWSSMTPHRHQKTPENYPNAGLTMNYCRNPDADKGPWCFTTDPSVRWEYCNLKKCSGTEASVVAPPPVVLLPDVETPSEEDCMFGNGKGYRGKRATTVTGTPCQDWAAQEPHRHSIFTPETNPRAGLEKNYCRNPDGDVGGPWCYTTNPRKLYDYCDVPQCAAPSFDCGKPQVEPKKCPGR
T1 sequence (P00747 581-810, chain 2 of 2): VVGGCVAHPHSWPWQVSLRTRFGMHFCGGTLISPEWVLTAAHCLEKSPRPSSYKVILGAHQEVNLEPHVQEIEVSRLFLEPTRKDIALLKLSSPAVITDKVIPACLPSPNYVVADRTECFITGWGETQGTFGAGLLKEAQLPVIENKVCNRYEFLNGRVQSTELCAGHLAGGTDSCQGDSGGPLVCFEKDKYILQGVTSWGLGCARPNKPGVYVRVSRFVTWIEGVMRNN

B1: G05 antibody (scFv, V domains shown)
VH: AVTLDESGGGLQTPGRALSLVCKASGFTFSSYAMHWVRQAPGKGLEFVAGIDNIGSYTRYGAAVKGRVTISRDNGQSIVRLQLDNLRAEDTGTYYCAKSAYGGSCCGPAYIDAWGHGTEVIVSS
VL: QAALTQPSSVSANPGETVEITCSGGGRSSYYGWYQQKSPGSAPVTLIYDNTNRPSNIPSRFSGSKSGSTATLTITGVQGEDEAVYFCGSADSSTTGIFGAGTTLTVL
notes: Chicken antibody from an scFv library (VH and VL joined by a flexible linker); also called scFv fragment of G05
Kd (plasmin): 0.76 nM | koff (plasmin): 0.00046 s⁻¹ | kon (plasmin): 640000 M⁻¹ s⁻¹ | percent inhibition of plasminogen binding to GAS cells [1]: 40% | Kd (plasminogen (human) [2]): 7.9 nM | koff (plasminogen (human) [2]): 0.00071 s⁻¹ | kon (plasminogen (human) [2]): 409000 M⁻¹ s⁻¹ | fold greater affinity for plasminogen compared to plasmin (plasminogen (human) [3]): 10 fold | IC50 of tPA-mediated plasminogen activation in solution (20 nM plasminogen, 20 mM EACA, 4 nM tPA, fluorogenic plasmin substrate) (plasminogen (human) [4]): 17.3 nM | IC50 of tPA-mediated plasminogen activation on a preformed fibrin clot (100 nM plasminogen) (plasminogen (human) [4]): 292 nM | percent reduction in plasminogen binding to GAS cells [5]: 70%

B2: G11 antibody (scFv, part only; not given: linker between domains, part only)
scFv, part: QAALTQPSSVSANPGEIVEITCSGGGTYYGWYQQKSPGSAPVTMIYQNNQRPSNIPSRFSGSGSGPANTLTITGVRAEDEAVYYCGGYDSSAGYATFGAGTTLTVLAVTLDESGGGLQTPGGGLSLVCKASGFSISSYSMYWVRQAPGKGLEFVASISSDGSDTSYGSAVKGRATISRDNGQSTVRLQLNYLRAEDTGTYFCAKPTGGYYTWYETGSIDTWGHGTEVIVSS
Kd (plasminogen (human) [6]): 14 nM | koff (plasminogen (human) [6]): 0.0018 s⁻¹ | kon (plasminogen (human) [6]): 420000 M⁻¹ s⁻¹ | IC50 of tPA-mediated plasminogen activation in solution (20 nM plasminogen, 20 mM EACA, 4 nM tPA, fluorogenic plasmin substrate) (plasminogen (human) [4]): 20 nM | IC50 of tPA-mediated plasminogen activation on a preformed fibrin clot (100 nM plasminogen) (plasminogen (human) [4]): 47 nM | fold greater affinity for plasminogen compared to plasmin (plasminogen (human) [7]): 10 fold
